Assay results from the supplement of paper PMC6379048.

Assays:
Experiment in all cases: Kd (EC50 corrected by depletion factor)
HNRNPDL = target: T1, HNRNPDL (UniProt O14979)
T1 sequence: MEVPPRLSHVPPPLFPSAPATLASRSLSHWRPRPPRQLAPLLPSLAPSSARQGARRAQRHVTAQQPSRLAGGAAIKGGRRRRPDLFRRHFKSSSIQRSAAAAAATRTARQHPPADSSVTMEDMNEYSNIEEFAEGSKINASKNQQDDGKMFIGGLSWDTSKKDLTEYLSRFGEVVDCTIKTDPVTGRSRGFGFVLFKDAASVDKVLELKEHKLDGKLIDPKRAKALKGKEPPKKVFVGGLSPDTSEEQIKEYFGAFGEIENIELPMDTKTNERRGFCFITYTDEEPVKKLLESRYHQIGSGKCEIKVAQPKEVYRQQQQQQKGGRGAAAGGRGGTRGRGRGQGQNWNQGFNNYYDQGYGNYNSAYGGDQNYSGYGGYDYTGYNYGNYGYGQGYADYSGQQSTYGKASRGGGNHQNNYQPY
In short: (§1)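 Kd was calculated as EC50, taken from a four-parameter log-logistic fit, multiplied by a protein-dependent depletion factor. The assay used HEK293-FT lysate (2.5 mg protein/well) pre-incubated for 1 h at 4°C with free RNA oligos (0 nM to 30 μM), then incubated for 30 min at 4°C with the matching oligos bound through a 5′-amino-C6 linker to NHS-Sepharose beads. Bound proteins were measured by label-free LC-MS/MS and normalised to the control.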

KHSRP = target: T2, KHSRP (UniProt Q92945)
T2 sequence: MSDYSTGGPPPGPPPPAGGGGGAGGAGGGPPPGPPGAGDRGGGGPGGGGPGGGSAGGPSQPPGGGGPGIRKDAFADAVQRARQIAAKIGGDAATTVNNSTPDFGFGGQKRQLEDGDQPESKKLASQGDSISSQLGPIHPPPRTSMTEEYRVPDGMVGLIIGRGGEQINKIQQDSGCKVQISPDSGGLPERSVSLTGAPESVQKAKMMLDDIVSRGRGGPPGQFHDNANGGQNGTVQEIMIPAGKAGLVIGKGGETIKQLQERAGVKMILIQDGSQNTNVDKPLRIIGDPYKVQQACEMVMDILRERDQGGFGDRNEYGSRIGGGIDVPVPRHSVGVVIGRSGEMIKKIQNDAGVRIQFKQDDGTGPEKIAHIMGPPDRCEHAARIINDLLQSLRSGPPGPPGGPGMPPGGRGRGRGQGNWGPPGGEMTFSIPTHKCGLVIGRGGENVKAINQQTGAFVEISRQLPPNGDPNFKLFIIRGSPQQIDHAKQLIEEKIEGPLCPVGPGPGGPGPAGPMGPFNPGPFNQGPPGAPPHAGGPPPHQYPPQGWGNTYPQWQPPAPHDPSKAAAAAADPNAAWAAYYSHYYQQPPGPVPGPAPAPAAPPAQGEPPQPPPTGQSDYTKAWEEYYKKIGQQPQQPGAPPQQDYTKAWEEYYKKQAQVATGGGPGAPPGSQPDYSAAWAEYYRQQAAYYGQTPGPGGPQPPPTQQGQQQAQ
In short: as §1

MEX3B = target: T3, MEX3B (UniProt Q6ZN04)
T3 sequence: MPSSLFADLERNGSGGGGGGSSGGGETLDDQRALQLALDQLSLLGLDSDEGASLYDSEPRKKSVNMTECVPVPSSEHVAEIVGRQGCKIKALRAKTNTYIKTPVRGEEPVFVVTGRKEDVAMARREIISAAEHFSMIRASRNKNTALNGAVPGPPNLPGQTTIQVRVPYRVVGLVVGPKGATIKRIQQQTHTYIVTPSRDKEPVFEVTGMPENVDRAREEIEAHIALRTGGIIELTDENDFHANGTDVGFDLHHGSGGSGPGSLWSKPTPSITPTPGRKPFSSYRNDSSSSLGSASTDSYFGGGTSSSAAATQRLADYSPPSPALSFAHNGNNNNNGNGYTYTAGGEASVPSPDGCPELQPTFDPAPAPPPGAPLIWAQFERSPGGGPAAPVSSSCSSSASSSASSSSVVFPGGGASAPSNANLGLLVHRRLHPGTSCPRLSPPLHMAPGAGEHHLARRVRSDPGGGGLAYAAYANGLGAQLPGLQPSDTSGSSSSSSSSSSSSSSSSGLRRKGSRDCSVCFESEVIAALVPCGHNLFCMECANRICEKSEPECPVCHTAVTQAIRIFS
In short: as §1

Sequence	Kd (HNRNPDL) [nM]	Kd (KHSRP) [nM]	Kd (MEX3B) [nM]
UAUUUAU	2360	928	220
AAUAAA	152	310	327
